B1: 5mer-420 (peptide)
peptide: KLFCR
B2: 5mer-130 (peptide)
peptide: RRFRK
B3: 5mer-124 (peptide)
peptide: KGFSK
B4: 5mer-444 (peptide)
peptide: KQQYR
B5: 5mer-410 (peptide)
peptide: RRFLR
B6: 5mer-441 (peptide)
peptide: KLIRK
B7: 5mer-111 (peptide)
peptide: KSVLK
B8: 5mer-141 (peptide)
peptide: RWQQR
B9: 5mer-112 (peptide)
peptide: KRYYR
B10: 5mer-128 (peptide)
peptide: RGVCR
B11: 5mer-445 (peptide)
peptide: RLFTR
B12: 5mer-127 (peptide)
peptide: RWVTK
B13: 5mer-416 (peptide)
peptide: KLYLR
B14: 5mer-446 (peptide)
peptide: RGLQK
B15: 5mer-136 (peptide)
peptide: RRIYK
B16: 5mer-120 (peptide)
peptide: RQILK
B17: 5mer-411 (peptide)
peptide: KGRLR
B18: 5mer-118 (peptide)
peptide: RVICK
B19: 5mer-413 (peptide)
peptide: RWLTR
B20: 5mer-138 (peptide)
peptide: RQRCR
B21: 5mer-125 (peptide)
peptide: RVRQK
B22: 5mer-114 (peptide)
peptide: KRQRR
B23: 5mer-117 (peptide)
peptide: RSVYK
B24: 5mer-119 (peptide)
peptide: KQIRK
B25: 5mer-143 (peptide)
peptide: KGQQR
B26: 5mer-421 (peptide)
peptide: RVVYK
B27: 5mer-145 (peptide)
peptide: RSFSK
B28: 5mer-447 (peptide)
peptide: KGYYK
B29: 5mer-133 (peptide)
peptide: KGQRK
B30: 5mer-429 (peptide)
peptide: KSQYK
B31: 5mer-144 (peptide)
peptide: KRFSK
B32: 5mer-443 (peptide)
peptide: RGFTK
B33: 5mer-434 (peptide)
peptide: RVLQK
B34: 5mer-126 (peptide)
peptide: RGVTK
B35: 5mer-131 (peptide)
peptide: KLRRR
B36: 5mer-419 (peptide)
peptide: RVYTR
B37: 5mer-123 (peptide)
peptide: KWIRR
B38: 5mer-116 (peptide)
peptide: RWRSK
B39: 5mer-122 (peptide)
peptide: RSYQK
B40: 5mer-439 (peptide)
peptide: KRVTR
B41: 5mer-137 (peptide)
peptide: KGVSK
B42: 5mer-140 (peptide)
peptide: KWRLR
B43: 5mer-129 (peptide)
peptide: KSLLK
B44: 5mer-415 (peptide)
peptide: KVFLR
B45: 5mer-433 (peptide)
peptide: KWRCR
B46: 5mer-422 (peptide)
peptide: KWICK
B47: 5mer-148 (peptide)
peptide: RSQTK
B48: 5mer-426 (peptide)
peptide: RRVSR
B49: 5mer-113 (peptide)
peptide: KRLRK
B50: 5mer-448 (peptide)
peptide: RQIRK
B51: 5mer-425 (peptide)
peptide: RGFYR
B52: 5mer-435 (peptide)
peptide: KLRQR
B53: 5mer-146 (peptide)
peptide: RWFTK
B54: 5mer-139 (peptide)
peptide: RLQYK
B55: 5mer-424 (peptide)
peptide: RVYLK
B56: 5mer-430 (peptide)
peptide: KWRTK
B57: 5mer-412 (peptide)
peptide: RGRSR
B58: 5mer-428 (peptide)
peptide: RQFLK
B59: 5mer-432 (peptide)
peptide: RQVRR
B60: 5mer-431 (peptide)
peptide: KVQLK
B61: 5mer-115 (peptide)
peptide: RWLLR
B62: 5mer-427 (peptide)
peptide: RGLYR
B63: 5mer-418 (peptide)
peptide: RWRTR
B64: 5mer-417 (peptide)
peptide: KWLQK
B65: 5mer-437 (peptide)
peptide: RVRLR
B66: 5mer-436 (peptide)
peptide: RVFYK
B67: 5mer-142 (peptide)
peptide: RQYSR
B68: 5mer-423 (peptide)
peptide: RRQLK
B69: 5mer-121 (peptide)
peptide: RQVTR
B70: 5mer-147 (peptide)
peptide: RRYQK
B71: 5mer-442 (peptide)
peptide: KVRLR
B72: 5mer-135 (peptide)
peptide: RRLLR
B73: 5mer-414 (peptide)
peptide: KVRCK
B74: 5mer-134 (peptide)
peptide: RQFSK
B75: 5mer-438 (peptide)
peptide: RVRSR
B76: 5mer-440 (peptide)
peptide: RQVTK
B77: 5mer-132 (peptide)
peptide: RVRCK
B78: 6mer-2-900 (peptide)
peptide: RFSAKK
B79: 6mer-2-899 (peptide)
peptide: KKMVKR

What follows are binders tested against acetylcholine receptor (assay: SPR, AchR immobilized on CM5 chip, peptide at 10 µM).

**Q.** With B1 as the binder, how does the Binding affinity (RU) read?
**A.** 84 RU

**Q.** B2 was tested. Which Binding affinity (RU) did it give?
**A.** 80 RU

**Q.** Which Binding affinity (RU) does the source give for B3 here?
**A.** 58 RU

**Q.** Which Binding affinity (RU) does the source give for B4 here?
**A.** 65 RU

**Q.** With B5 as the binder, how does the Binding affinity (RU) read?
**A.** 76 RU

**Q.** For B6, which Binding affinity (RU) is on record?
**A.** 53 RU

**Q.** Which Binding affinity (RU) does the source give for B7 here?
**A.** 85 RU

**Q.** B8 was tested. Which Binding affinity (RU) did it give?
**A.** 50 RU

**Q.** For B9, which Binding affinity (RU) is on record?
**A.** 58 RU

**Q.** Which Binding affinity (RU) does the source give for B10 here?
**A.** 56 RU

**Q.** Which Binding affinity (RU) does the source give for B11 here?
**A.** 77 RU

**Q.** For B12, which Binding affinity (RU) is on record?
**A.** 86 RU

**Q.** For B13, which Binding affinity (RU) is on record?
**A.** 67 RU

**Q.** With B14 as the binder, how does the Binding affinity (RU) read?
**A.** 53 RU

**Q.** B15 was tested. Which Binding affinity (RU) did it give?
**A.** 75 RU

**Q.** How did the Binding affinity (RU) turn out when B16 was run?
**A.** 68 RU

**Q.** For B17, which Binding affinity (RU) is on record?
**A.** 66 RU

**Q.** How did the Binding affinity (RU) turn out when B18 was run?
**A.** 87 RU

**Q.** For B19, which Binding affinity (RU) is on record?
**A.** 56 RU

**Q.** B20 was tested. Which Binding affinity (RU) did it give?
**A.** 71 RU

**Q.** Which Binding affinity (RU) does the source give for B21 here?
**A.** 67 RU

**Q.** B22 was tested. Which Binding affinity (RU) did it give?
**A.** 82 RU

**Q.** With B23 as the binder, how does the Binding affinity (RU) read?
**A.** 69 RU

**Q.** B24 was tested. Which Binding affinity (RU) did it give?
**A.** 60 RU

**Q.** Which Binding affinity (RU) does the source give for B25 here?
**A.** 64 RU

**Q.** How did the Binding affinity (RU) turn out when B26 was run?
**A.** 68 RU

**Q.** B27 was tested. Which Binding affinity (RU) did it give?
**A.** 62 RU

**Q.** How did the Binding affinity (RU) turn out when B28 was run?
**A.** 76 RU

**Q.** Which Binding affinity (RU) does the source give for B29 here?
**A.** 84 RU

**Q.** B30 was tested. Which Binding affinity (RU) did it give?
**A.** 63 RU

**Q.** How did the Binding affinity (RU) turn out when B31 was run?
**A.** 58 RU

**Q.** How did the Binding affinity (RU) turn out when B32 was run?
**A.** 80 RU

**Q.** For B33, which Binding affinity (RU) is on record?
**A.** 74 RU

**Q.** With B34 as the binder, how does the Binding affinity (RU) read?
**A.** 61 RU

**Q.** With B35 as the binder, how does the Binding affinity (RU) read?
**A.** 72 RU

**Q.** How did the Binding affinity (RU) turn out when B36 was run?
**A.** 67 RU

**Q.** B37 was tested. Which Binding affinity (RU) did it give?
**A.** 53 RU

**Q.** B38 was tested. Which Binding affinity (RU) did it give?
**A.** 64 RU

**Q.** For B39, which Binding affinity (RU) is on record?
**A.** 78 RU

**Q.** With B40 as the binder, how does the Binding affinity (RU) read?
**A.** 65 RU

**Q.** With B41 as the binder, how does the Binding affinity (RU) read?
**A.** 77 RU

**Q.** For B42, which Binding affinity (RU) is on record?
**A.** 69 RU

**Q.** How did the Binding affinity (RU) turn out when B43 was run?
**A.** 63 RU

**Q.** B44 was tested. Which Binding affinity (RU) did it give?
**A.** 77 RU

**Q.** How did the Binding affinity (RU) turn out when B45 was run?
**A.** 73 RU

**Q.** With B46 as the binder, how does the Binding affinity (RU) read?
**A.** 87 RU

**Q.** For B47, which Binding affinity (RU) is on record?
**A.** 50 RU

**Q.** With B48 as the binder, how does the Binding affinity (RU) read?
**A.** 57 RU

**Q.** Which Binding affinity (RU) does the source give for B49 here?
**A.** 79 RU

**Q.** B50 was tested. Which Binding affinity (RU) did it give?
**A.** 74 RU

**Q.** For B51, which Binding affinity (RU) is on record?
**A.** 80 RU

**Q.** Which Binding affinity (RU) does the source give for B52 here?
**A.** 69 RU

**Q.** Which Binding affinity (RU) does the source give for B53 here?
**A.** 52 RU

**Q.** With B54 as the binder, how does the Binding affinity (RU) read?
**A.** 73 RU

**Q.** Which Binding affinity (RU) does the source give for B55 here?
**A.** 87 RU

**Q.** How did the Binding affinity (RU) turn out when B56 was run?
**A.** 80 RU

**Q.** How did the Binding affinity (RU) turn out when B57 was run?
**A.** 81 RU

**Q.** B58 was tested. Which Binding affinity (RU) did it give?
**A.** 86 RU

**Q.** With B59 as the binder, how does the Binding affinity (RU) read?
**A.** 52 RU

**Q.** For B60, which Binding affinity (RU) is on record?
**A.** 81 RU

**Q.** How did the Binding affinity (RU) turn out when B61 was run?
**A.** 75 RU

**Q.** With B62 as the binder, how does the Binding affinity (RU) read?
**A.** 87 RU

**Q.** How did the Binding affinity (RU) turn out when B63 was run?
**A.** 53 RU

**Q.** With B64 as the binder, how does the Binding affinity (RU) read?
**A.** 65 RU

**Q.** Which Binding affinity (RU) does the source give for B65 here?
**A.** 50 RU

**Q.** For B66, which Binding affinity (RU) is on record?
**A.** 60 RU

**Q.** Which Binding affinity (RU) does the source give for B67 here?
**A.** 52 RU

**Q.** Which Binding affinity (RU) does the source give for B68 here?
**A.** 60 RU

**Q.** For B69, which Binding affinity (RU) is on record?
**A.** 73 RU

**Q.** For B70, which Binding affinity (RU) is on record?
**A.** 66 RU

**Q.** With B71 as the binder, how does the Binding affinity (RU) read?
**A.** 61 RU

**Q.** Which Binding affinity (RU) does the source give for B72 here?
**A.** 64 RU

**Q.** B73 was tested. Which Binding affinity (RU) did it give?
**A.** 71 RU

**Q.** For B74, which Binding affinity (RU) is on record?
**A.** 61 RU

**Q.** With B75 as the binder, how does the Binding affinity (RU) read?
**A.** 76 RU

**Q.** How did the Binding affinity (RU) turn out when B76 was run?
**A.** 57 RU

**Q.** B77 was tested. Which Binding affinity (RU) did it give?
**A.** 83 RU

What follows are binders tested against acetylcholine receptor (assay: SPR, receptor immobilised on chip, peptide at 10 uM).

**Q.** How did the Binding affinity (RU) turn out when B78 was run?
**A.** 11 RU

**Q.** How did the Binding affinity (RU) turn out when B79 was run?
**A.** 13 RU

Reference: patent publication US20250011363A1, “OPTIMIZED SHORTENED PEPTIDE THAT BINDS TO ACETYLCHOLINE RECEPTOR, AND USE THEREOF” (SKINMED CO., LTD., priority 2021, published 2025)
